Kd, fold less than the interaction with m8 and stoichiometry N data for 2 molecules are collected here from article PMC3280215.

The target in assay [1] is engineered outer domain mini-V3 (glycosylated gp120 outer domain construct containing a truncated V3 loop) (HIV-1).
In assay [2] the target is soluble, partially deglycosylated 664G Env trimer (HIV-1). As to the kind of experiment: negative-stain EM reconstruction.

B1: PGT 128 (format not stated for the experiment) (antibody, V domains shown)
VH: QPQLQESGPTLVEASETLSLTCAVSGDSTAACNSFWGWVRQPPGKGLEWVGSLSHCASYWNRGWTYHNPSLKSRLTLALDTPKNLVFLKLNSVTAADTATYYCARFGGEVLRYTDWPKPAWVDLWGRGTLVTVSS
VL: QSALTQPPSASGSPGQSITISCTGTSNNFVSWYQQHAGKAPKLVIYDVNKRPSGVPDRFSGSKSGNTASLTVSGLQTDDEAVYYCGSLVGNWDVIFGGGTKLTVL
On to B1, for which, in assay [1], the Kd stood at 0.046 µM and the fold less than the interaction with m8 was found to be 8 fold.

B2: Fab PGT 128 (Fab, V domains shown)
VH: QPQLQESGPTLVEASETLSLTCAVSGDSTAACNSFWGWVRQPPGKGLEWVGSLSHCASYWNRGWTYHNPSLKSRLTLALDTPKNLVFLKLNSVTAADTATYYCARFGGEVLRYTDWPKPAWVDLWGRGTLVTVSS
VL: QSALTQPPSASGSPGQSITISCTGTSNNFVSWYQQHAGKAPKLVIYDVNKRPSGVPDRFSGSKSGNTASLTVSGLQTDDEAVYYCGSLVGNWDVIFGGGTKLTVL
B2: the stoichiometry N in assay [2] came to 3.
